Experiments:
HLA-B*44:05 = HLA-B*44:05 (Homo sapiens, UniProt P01889, A223V/A65T/A93T/A95T/D201E/D98Y/E176V/E187L/E204Q/E69K/G107R/H137Y/K202T/L105A/L119I/N104T/N87E/Q56L/Q94N/R106L/R155S/R180D/S101N/S121R/S35A/S48T/T118I/V36M/W191S/Y91S); experiment: MHC binding assay (UV-ligand exchange, β2m ELISA, peptide exchange yield); conditions: binding to HLA-B*44:05
Outline: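 Peptide–HLA complexes formed by UV-ligand exchange of a UV-cleavable peptide for the test peptide. Exchange yield measured by β2m ELISA: complexes diluted 100-fold and captured on streptavidin, detected with HRP anti-β2m and TMB, read at 450 nm. Quantified against refolded HLA-A*02:01/MLA-001 monomer standards, 15-500 ng/ml.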

CD8+ T cells = experiment: In vitro immunogenicity: T-cell priming with aAPCs loaded with peptide/MHC and anti-CD28, pMHC multimer readout; type: cell-based, human; conditions: Table 10b, pMHC multimer readout after T-cell priming
Description: After three cycles of stimulation, the detection of peptide-reactive cells was performed by 2D multimer staining with B*44/SEQ ID NO: 469 (FIG. 3A), B*44/SEQ ID NO: 512 (FIG. 3B), B*44/SEQ ID NO: 9 (FIG. 3C), B*44/SEQ ID NO: 11 (D), B*44/SEQ ID NO: 17 (E), B*44/SEQ ID NO: 35 (F) or B*44/SEQ ID NO: 41 (FIG. 3G). Right panels (FIGS. 3A through 3G) show control staining of cells stimulated with irrelevant B*44/peptide complexes. Viable singlet cells were gated for CD8+ lymphocytes. Boolean gates helped excluding false-positive events detected with multimers specific for different peptides.
In order to obtain information regarding the immunogenicity of the TUMAPs of the present invention, the inventors performed investigations using an in vitro T-cell priming assay based on repeated stimulations of CD8+ T cells with artificial antigen presenting cells (aAPCs) loaded with peptide/MHC complexes and anti-CD28 antibody.
In order to perform in vitro stimulations by artificial antigen presenting cells loaded with peptide-MHC complex (pMHC) and anti-CD28 antibody, the inventors first isolated CD8+ T cells from fresh HLA-A*02 leukapheresis products via positive selection using CD8 microbeads (Miltenyi Biotec, Bergisch-Gladbach, Germany) of healthy donors obtained from the University clinics Mannheim, Germany, after informed consent.
PBMCs and isolated CD8+ lymphocytes were incubated in T-cell medium (TCM) until use consisting of RPMI-Glutamax (Invitrogen, Karlsruhe, Germany) supplemented with 10% heat inactivated human AB serum (PAN-Biotech, Aidenbach, Germany), 100 U/ml Penicillin/100 μg/ml Streptomycin (Cambrex, Cologne, Germany), 1 mM sodium pyruvate (CC Pro, Oberdorda, Germany), 20 μg/ml Gentamycin (Cambrex). 2.5 ng/ml IL-7 (PromoCell, Heidelberg, Germany) and 10 U/ml IL-2 (Novartis Pharma, Nümberg, Germany) were also added to the TCM at this step.
Generation of pMHC/anti-CD28 coated beads, T-cell stimulations and readout was performed in a highly defined in vitro system using four different pMHC molecules per stimulation condition and 8 different pMHC molecules per readout condition.
The purified co-stimulatory mouse IgG2a anti human CD28 Ab 9.3 (Jung et al., 1987) was chemically biotinylated using Sulfo-N-hydroxysuccinimidobiotin as recommended by the manufacturer (Perbio, Bonn, Germany). Beads used were 5.6 μm diameter streptavidin coated polystyrene particles (Bangs Laboratories, Illinois, USA).
800.000 beads/200 μl were coated in 96-well plates in the presence of 4×12.5 ng different biotin-pMHC, washed and 600 ng biotin anti-CD28 were added subsequently in a volume of 200 μl. Stimulations were initiated in 96-well plates by co-incubating 1×10^6 CD8+ T cells with 2×10^5 washed coated beads in 200 μl TCM supplemented with 5 ng/ml IL-12 (PromoCell) for 3 days at 37° C. Half of the medium was then exchanged by fresh TCM supplemented with 80 U/ml IL-2 and incubating was continued for 4 days at 37° C. This stimulation cycle was performed for a total of three times. For the pMHC multimer readout using 8 different pMHC molecules per condition, a two-dimensional combinatorial coding approach was used as previously described (Andersen et al., 2012) with minor modifications encompassing coupling to 5 different fluorochromes. Finally, multimeric analyses were performed by staining the cells with Live/dead near IR dye (Invitrogen, Karlsruhe, Germany), CD8-FITC antibody clone SK1 (BD, Heidelberg, Germany) and fluorescent pMHC multimers. For analysis, a BD LSRII SORP cytometer equipped with appropriate lasers and filters was used. Peptide specific cells were calculated as percentage of total CD8+ cells. Evaluation of multimeric analysis was done using the FlowJo software (Tree Star, Oregon, USA). In vitro priming of specific multimer+CD8+ lymphocytes was detected by comparing to negative control stimulations.

Substance: 66 (AEVTLNNTI; listed as Homo sapiens) [compound 66]
- Peptide exchange (MHC class I binding score, peptide exchange yield) (HLA-B*44:05): +++ (>50 = +++)
- Wells positive [%] (CD8+ T cells): + (<20% = +)

Substance: 47 (TEVHSSPAQRW; listed as Homo sapiens) [compound 47]
- Peptide exchange (MHC class I binding score, peptide exchange yield) (HLA-B*44:05): +++ (>50 = +++)
- Wells positive [%] (CD8+ T cells): +++ (50%-69% = +++)

Substance: 70 (AEAEEAMKRL; listed as Homo sapiens) [compound 70]
- Peptide exchange (MHC class I binding score, peptide exchange yield) (HLA-B*44:05): +++ (>50 = +++)
- Wells positive [%] (CD8+ T cells): ++ (20%-49% = ++)

Substance: 13 (VEAQDRETW; listed as Homo sapiens) [compound 13]
- Peptide exchange (MHC class I binding score, peptide exchange yield) (HLA-B*44:05): ++ (>20% = ++)
- Wells positive [%] (CD8+ T cells): ++ (20%-49% = ++)

Substance: 73 (GEGTLRLSW; listed as Homo sapiens) [compound 73]
- Peptide exchange (MHC class I binding score, peptide exchange yield) (HLA-B*44:05): ++++ (>75% = ++++)
- Wells positive [%] (CD8+ T cells): ++ (20%-49% = ++)

Substance: 49 (SEYVHSSF; listed as Homo sapiens) [compound 49]
- Peptide exchange (MHC class I binding score, peptide exchange yield) (HLA-B*44:05): ++ (>20% = ++)
- Wells positive [%] (CD8+ T cells): + (<20% = +)

Substance: 68 (NEIDIHSIYF; listed as Homo sapiens) [compound 68]
- Peptide exchange (MHC class I binding score, peptide exchange yield) (HLA-B*44:05): ++++ (>75% = ++++)
- Wells positive [%] (CD8+ T cells): ++ (20%-49% = ++)

Substance: 69 (DENIQKFIW; listed as Homo sapiens) [compound 69]
- Peptide exchange (MHC class I binding score, peptide exchange yield) (HLA-B*44:05): +++ (>50 = +++)
- Wells positive [%] (CD8+ T cells): ++ (20%-49% = ++)

Substance: 11 (EENIVAIGI; listed as Homo sapiens) [compound 11]
- Peptide exchange (MHC class I binding score, peptide exchange yield) (HLA-B*44:05): +++ (>50 = +++)
- Wells positive [%] (CD8+ T cells): +++ (50%-69% = +++)

Substance: 44 (SEFGAPRW; listed as Homo sapiens) [compound 44]
- Peptide exchange (MHC class I binding score, peptide exchange yield) (HLA-B*44:05): +++ (>50 = +++)
- Wells positive [%] (CD8+ T cells): ++++ (>=70% = ++++)

Substance: 421 (TEDYSKQAL; listed as Homo sapiens) [compound 421]
- Peptide exchange (MHC class I binding score, peptide exchange yield) (HLA-B*44:05): +++ (>50 = +++)
- Wells positive [%] (CD8+ T cells): + (<20% = +)

Substance: 41 (EENTGKTYF; listed as Homo sapiens) [compound 41]
- Peptide exchange (MHC class I binding score, peptide exchange yield) (HLA-B*44:05): +++ (>50 = +++)
- Wells positive [%] (CD8+ T cells): ++ (20%-49% = ++)

Substance: 61 (AEYSVHKI; listed as Homo sapiens) [compound 61]
- Peptide exchange (MHC class I binding score, peptide exchange yield) (HLA-B*44:05): +++ (>50 = +++)
- Wells positive [%] (CD8+ T cells): + (<20% = +)

Substance: 4 (AEALGAAKKL; listed as Homo sapiens) [compound 4]
- Peptide exchange (MHC class I binding score, peptide exchange yield) (HLA-B*44:05): ++ (>20% = ++)
- Wells positive [%] (CD8+ T cells): + (<20% = +)

Substance: 15 (MEAELVRRI; listed as Homo sapiens) [compound 15]
- Peptide exchange (MHC class I binding score, peptide exchange yield) (HLA-B*44:05): +++ (>50 = +++)
- Wells positive [%] (CD8+ T cells): + (<20% = +)

Substance: 18 (QEAPRPASSL; listed as Homo sapiens) [compound 18]
- Peptide exchange (MHC class I binding score, peptide exchange yield) (HLA-B*44:05): +++ (>50 = +++)
- Wells positive [%] (CD8+ T cells): + (<20% = +)

Substance: 62 (AEYSVHKITSTF; listed as Homo sapiens) [compound 62]
- Peptide exchange (MHC class I binding score, peptide exchange yield) (HLA-B*44:05): ++++ (>75% = ++++)
- Wells positive [%] (CD8+ T cells): + (<20% = +)

Substance: 56 (ALEEGGGYIF; listed as Homo sapiens) [compound 56]
- Peptide exchange (MHC class I binding score, peptide exchange yield) (HLA-B*44:05): + (>10% = +)
- Wells positive [%] (CD8+ T cells): + (<20% = +)

Substance: 20 (LEALLSDLF; listed as Homo sapiens) [compound 20]
- Peptide exchange (MHC class I binding score, peptide exchange yield) (HLA-B*44:05): +++ (>50 = +++)
- Wells positive [%] (CD8+ T cells): ++ (20%-49% = ++)

Substance: 57 (SEATHIITI; listed as Homo sapiens) [compound 57]
- Peptide exchange (MHC class I binding score, peptide exchange yield) (HLA-B*44:05): +++ (>50 = +++)
- Wells positive [%] (CD8+ T cells): ++++ (>=70% = ++++)

Substance: 36 (LEQASRIWSW; listed as Homo sapiens) [compound 36]
- Peptide exchange (MHC class I binding score, peptide exchange yield) (HLA-B*44:05): ++++ (>75% = ++++)
- Wells positive [%] (CD8+ T cells): ++++ (>=70% = ++++)

Substance: 32 (REYEYDLKW; listed as Homo sapiens) [compound 32]
- Peptide exchange (MHC class I binding score, peptide exchange yield) (HLA-B*44:05): ++++ (>75% = ++++)
- Wells positive [%] (CD8+ T cells): + (<20% = +)

Substance: 24 (EELALRIGL; listed as Homo sapiens) [compound 24]
- Peptide exchange (MHC class I binding score, peptide exchange yield) (HLA-B*44:05): +++ (>50 = +++)
- Wells positive [%] (CD8+ T cells): ++++ (>=70% = ++++)

Substance: 29 (TENPKKFKI; listed as Homo sapiens) [compound 29]
- Peptide exchange (MHC class I binding score, peptide exchange yield) (HLA-B*44:05): +++ (>50 = +++)
- Wells positive [%] (CD8+ T cells): ++++ (>=70% = ++++)

Substance: 9 (MEVDPIGHLYIF; listed as Homo sapiens) [compound 9]
- Peptide exchange (MHC class I binding score, peptide exchange yield) (HLA-B*44:05): ++++ (>75% = ++++)
- Wells positive [%] (CD8+ T cells): +++ (50%-69% = +++)

Substance: 79 (TEAQRLDCW; listed as Homo sapiens) [compound 79]
- Peptide exchange (MHC class I binding score, peptide exchange yield) (HLA-B*44:05): +++ (>50 = +++)
- Wells positive [%] (CD8+ T cells): + (<20% = +)

Substance: 12 (KEVDPTGHSF; listed as Homo sapiens) [compound 12]
- Peptide exchange (MHC class I binding score, peptide exchange yield) (HLA-B*44:05): +++ (>50 = +++)
- Wells positive [%] (CD8+ T cells): + (<20% = +)

Substance: 78 (TEFSNHINL; listed as Homo sapiens) [compound 78]
- Peptide exchange (MHC class I binding score, peptide exchange yield) (HLA-B*44:05): +++ (>50 = +++)
- Wells positive [%] (CD8+ T cells): ++ (20%-49% = ++)

Substance: 420 (MEVDPIGHVY; listed as Homo sapiens) [compound 420]
- Peptide exchange (MHC class I binding score, peptide exchange yield) (HLA-B*44:05): +++ (>50 = +++)
- Wells positive [%] (CD8+ T cells): + (<20% = +)

Substance: 39 (AEAMGKFKQCF; listed as Homo sapiens) [compound 39]
- Peptide exchange (MHC class I binding score, peptide exchange yield) (HLA-B*44:05): +++ (>50 = +++)
- Wells positive [%] (CD8+ T cells): + (<20% = +)

Substance: 6 (AELVGPVIPQDW; listed as Homo sapiens) [compound 6]
- Peptide exchange (MHC class I binding score, peptide exchange yield) (HLA-B*44:05): +++ (>50 = +++)
- Wells positive [%] (CD8+ T cells): ++ (20%-49% = ++)

Substance: 54 (QEISAHRTEF; listed as Homo sapiens) [compound 54]
- Peptide exchange (MHC class I binding score, peptide exchange yield) (HLA-B*44:05): +++ (>50 = +++)
- Wells positive [%] (CD8+ T cells): + (<20% = +)

Substance: 51 (VEMTGKHQL; listed as Homo sapiens) [compound 51]
- Peptide exchange (MHC class I binding score, peptide exchange yield) (HLA-B*44:05): ++ (>20% = ++)
- Wells positive [%] (CD8+ T cells): ++ (20%-49% = ++)

Substance: 33 (IEYENQKRL; listed as Homo sapiens) [compound 33]
- Peptide exchange (MHC class I binding score, peptide exchange yield) (HLA-B*44:05): ++ (>20% = ++)
- Wells positive [%] (CD8+ T cells): ++ (20%-49% = ++)

Substance: 22 (TEEITEGVW; listed as Homo sapiens) [compound 22]
- Peptide exchange (MHC class I binding score, peptide exchange yield) (HLA-B*44:05): ++++ (>75% = ++++)
- Wells positive [%] (CD8+ T cells): + (<20% = +)

Substance: 25 (SEKEPGQQY; listed as Homo sapiens) [compound 25]
- Peptide exchange (MHC class I binding score, peptide exchange yield) (HLA-B*44:05): ++ (>20% = ++)
- Wells positive [%] (CD8+ T cells): ++ (20%-49% = ++)

Substance: 42 (SEENTGKTYF; listed as Homo sapiens) [compound 42]
- Peptide exchange (MHC class I binding score, peptide exchange yield) (HLA-B*44:05): +++ (>50 = +++)
- Wells positive [%] (CD8+ T cells): ++ (20%-49% = ++)

Substance: 30 (EEFCFSVRF; listed as Homo sapiens) [compound 30]
- Peptide exchange (MHC class I binding score, peptide exchange yield) (HLA-B*44:05): +++ (>50 = +++)
- Wells positive [%] (CD8+ T cells): + (<20% = +)
